Measurements as given in patent US20050226813A1, “Labelled somatostatin analogs backbone cyclized through metal complexation” (priority 2002, published 2005).
One block for each molecule: values may come before it. *1 amine or outer side, *2 acyl side, *3 side chain or, on linkers, in order; H or OH if unused. Where no end group is shown, it is not given here. [ ]: non-standard residue; d: D form. ReO = oxorhenium(V), one metal core binding both hemi-chelators, from trichlorooxobis(triphenylphosphine)rhenium(V); GlyN3 = N-(3-aminopropyl)glycine amide, Cys acylated on the omega-amine, NC(=O)CN(CCCN[*:3])[*:1]; N(6-aminohexyl)Gly = O=C(CN(CCCCCCN[*:3])[*:1])[*:2]; N(2-Aminoethyl)Gly = O=C(CN(CCN[*:3])[*:1])[*:2]

What was measured:
SST-R2 and SST-R5 = conditions: activity described in WO 99/65508; cited from earlier work
human cloned SST-R2 = biological target: T1, human cloned SST-R2 (human, UniProt P30874 1-369); assay: inhibition of 125I-Tyr11-SRIF-14 binding to membranes of CHO cells expressing cloned human SST-R2
T1 construct: whole, on cells; Assayed as membrane preparations of CHO cells expressing the cloned receptor, not as intact cells; also called hSST-R2; human SST-R2
T1 sequence (P30874 whole entry): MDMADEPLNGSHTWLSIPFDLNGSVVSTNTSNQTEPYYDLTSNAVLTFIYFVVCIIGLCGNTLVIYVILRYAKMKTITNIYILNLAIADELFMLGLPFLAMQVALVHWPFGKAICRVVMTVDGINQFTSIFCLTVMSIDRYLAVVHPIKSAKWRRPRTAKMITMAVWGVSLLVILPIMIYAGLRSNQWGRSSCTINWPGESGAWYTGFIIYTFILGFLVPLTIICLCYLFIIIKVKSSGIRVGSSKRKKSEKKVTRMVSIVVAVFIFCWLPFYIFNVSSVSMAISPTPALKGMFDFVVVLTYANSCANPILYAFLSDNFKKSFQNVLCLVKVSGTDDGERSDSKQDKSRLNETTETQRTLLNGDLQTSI
Method: The SST analogs were tested for their potency in inhibition of the binding of ¹²⁵I-Tyr¹¹-SRIF (based on the method described by Raynor et. al., Molecular Pharmnacology 43: 838, 1993) to membrane preparations expressing the transmembranal SST receptors (SST-R1, 2, 3, 4 or 5). The receptor preparations used for these tests were either from the cloned human receptors selectively and stably expressed in Chinese Hamster Ovary (CHO) cells or from cell lines naturally expressing the SST-R5. Typically, cell membranes were homogenized in Tris buffer in the presence of protease inhibitors and incubated for 30-40 minutes with ¹²⁵I-Tyr¹¹-SRIF with different concentrations of the tested sample. The binding reactions were filtered, the filters were washed and the bound radioactivity was counted in β counter after addition of scintillation colution. Non specific binding was defined as the radioactivity remaining bound in the presence of 1 μM unlabeled SRIF-14.

IC50 (human cloned SST-R2): 13 nM
B1: ReO-GF-30 (peptide)
peptide: CFW[dW]KTF[GlyN3](dC)-NH2
modifications: bridge (positions not given here) via ReO; not fully specified (bridges); also: N2S2 oxorhenium(V) chelate via the two Cys

IC50 (human cloned SST-R2): ~100 nM
B2: ReO-GF-34 (peptide)
peptide: CXFWWKTFG
modifications: L-Cys at 1; GABA at 2 (written X); D-Trp at 5; GlyN2 building unit at 9 with D-Cys on its omega-amine; C-terminal amide; ReO (oxorhenium(V)) chelated by the two Cys closes the ring

IC50 (human cloned SST-R2): > 10 nM
B3: ReO-GF-33 (peptide)
peptide: CXFWWKTFG
modifications: L-Cys at 1; GABA at 2 (written X); D-Trp at 5; GlyN2 building unit at 9 with L-Cys on its omega-amine; C-terminal amide; ReO (oxorhenium(V)) chelated by the two Cys closes the ring

IC50 (human cloned SST-R2): > 10 nM
B5: ReO-GF-40 (peptide)
peptide: CXFWWKTFG
modifications: not fully specified; D-Cys at 1; beta-Ala at 2 (written X); D-Trp at 5; GlyN2 building unit at 9 with D-Cys on its omega-amine; C-terminal amide; ReO (oxorhenium(V)) chelated by the two Cys closes the ring

IC50 (human cloned SST-R2): > 10 nM
B6: ReO-GF-46 (peptide)
peptide: CFW[dW]KTF[N(2-Aminoethyl)Gly](dC)-NH2
modifications: bridge (positions not given here) via ReO; not fully specified (bridges); also: N2S2 oxorhenium(V) chelate via the two Cys

IC50 (human cloned SST-R2): 2 nM
B9: ReO-GF-29 (peptide)
peptide: CFWWKTFG
modifications: not fully specified; L-Cys at 1; D-Trp at 4; GlyN3 building unit at 8 with L-Cys on its omega-amine; C-terminal amide; ReO (oxorhenium(V)) chelated by the two Cys closes the ring
notes: also called ReO-LCys*-Phe-Trp-DTrp-Lys-Thr-Phe-GlyN3(LCys*)-NH2

IC50 (human cloned SST-R2): 23 nM
B10: ReO-GF-24 (peptide)
peptide: CXFWWKTFG
modifications: not fully specified; D-Cys at 1; beta-Ala at 2 (written X); D-Trp at 5; GlyN3 building unit at 9 with D-Cys on its omega-amine; C-terminal amide; ReO (oxorhenium(V)) chelated by the two Cys closes the ring

IC50 (human cloned SST-R2): 14 nM
B14: ReO-GF-32 (peptide)
peptide: CFWWKTFG
modifications: not fully specified; D-Cys at 1; D-Trp at 4; GlyN3 building unit at 8 with D-Cys on its omega-amine; C-terminal amide; ReO (oxorhenium(V)) chelated by the two Cys closes the ring

IC50 (human cloned SST-R2): > 10 nM
B18: ReO-GF-43 (peptide)
peptide: CGFWWKTFG
modifications: not fully specified; D-Cys at 1; D-Trp at 5; GlyN2 building unit at 9 with L-Cys on its omega-amine; C-terminal amide; ReO (oxorhenium(V)) chelated by the two Cys closes the ring

IC50 (human cloned SST-R2): ~10 nM
B19: ReO-GF-26 (peptide)
peptide: CGFW[dW]KTF[GlyN3](dC)-NH2
modifications: bridge (positions not given here) via ReO; not fully specified (bridges); also: N2S2 oxorhenium(V) chelate via the two Cys

IC50 (human cloned SST-R2): > 10 nM
B20: ReO-GF-38 (peptide)
peptide: CXFWWKTFG
modifications: L-Cys at 1; beta-Ala at 2 (written X); D-Trp at 5; GlyN2 building unit at 9 with D-Cys on its omega-amine; C-terminal amide; ReO (oxorhenium(V)) chelated by the two Cys closes the ring

IC50 (human cloned SST-R2): > 10 nM
B21: ReO-GF-25 (peptide)
peptide: CGFW[dW]KTF[GlyN3](Cys)-NH2
modifications: bridge (positions not given here) via ReO; not fully specified (bridges); also: N2S2 oxorhenium(V) chelate via the two Cys

Continued, molecule first:

Molecule: *GABA-Phe-Trp-DTrp-Lys-Thr-Phe-GlyC3*-NH2 [PTR 3173]
receptor selectivity (SST-R2 and SST-R5): selective for SST-R2 and SST-R5

B4: ReO-GF-12 (peptide)
peptide: CGFWWKTFG
modifications: not fully specified; D-Cys at 1; D-Trp at 5; GlyN6 building unit at 9 with D-Cys on its omega-amine; C-terminal amide; ReO (oxorhenium(V)) chelated by the two Cys closes the ring
IC50 (human cloned SST-R2): 9 nM

B7: ReO-GF-9 (peptide)
peptide: CGFW[dW]KTF[N(6-aminohexyl)Gly](Cys)-NH2
modifications: bridge (positions not given here); not fully specified (bridges); also: N2S2 oxorhenium(V) chelate via the two Cys
IC50 (human cloned SST-R2): ~10 nM

B8: ReO-GF-23 (peptide)
peptide: CXFWWKTFG
modifications: D-Cys at 1; beta-Ala at 2 (written X); D-Trp at 5; GlyN3 building unit at 9 with L-Cys on its omega-amine; C-terminal amide; ReO (oxorhenium(V)) chelated by the two Cys closes the ring
IC50 (human cloned SST-R2): ~10 nM

B11: ReO-GF-5 (peptide)
peptide: CXFWWKTFG
modifications: L-Cys at 1; beta-Ala at 2 (written X); D-Trp at 5; GlyN6 building unit at 9 with L-Cys on its omega-amine; C-terminal amide; ReO (oxorhenium(V)) chelated by the two Cys closes the ring
IC50 (human cloned SST-R2): 35 nM

B12: ReO-GF-17 (peptide)
peptide: CXFWWKTFG
modifications: L-Cys at 1; GABA at 2 (written X); D-Trp at 5; GlyN3 building unit at 9 with L-Cys on its omega-amine; C-terminal amide; ReO (oxorhenium(V)) chelated by the two Cys closes the ring
IC50 (human cloned SST-R2): 24 nM

B13: ReO-GF-21 (peptide)
peptide: CXFWWKTFG
modifications: L-Cys at 1; beta-Ala at 2 (written X); D-Trp at 5; GlyN3 building unit at 9 with L-Cys on its omega-amine; C-terminal amide; ReO (oxorhenium(V)) chelated by the two Cys closes the ring
notes: also called ReO-LCys*-βAla-Phe-Trp-DTrp-Lys-Thr-Phe-GlyN3(LCys*)-NH2
IC50 (human cloned SST-R2): 1 nM

B15: ReO-GF-14 (peptide)
peptide: CFWWKTFG
modifications: not fully specified; L-Cys at 1; D-Trp at 4; GlyN6 building unit at 8 with D-Cys on its omega-amine; C-terminal amide; ReO (oxorhenium(V)) chelated by the two Cys closes the ring
notes: also called ReO-LCys*-Phe-Trp-DTrp-Lys-Thr-Phe-GlyN6(DCys*)-NH2
IC50 (human cloned SST-R2): 7 nM

B16: ReO-GF-1 (peptide)
peptide: CXFWWKTFG
modifications: L-Cys at 1; GABA at 2 (written X); D-Trp at 5; GlyN6 building unit at 9 with L-Cys on its omega-amine; C-terminal amide; ReO (oxorhenium(V)) chelated by the two Cys closes the ring
IC50 (human cloned SST-R2): 16 nM

B17: ReO-GF-10 (peptide)
peptide: CGFWWKTFG
modifications: not fully specified; L-Cys at 1; D-Trp at 5; GlyN6 building unit at 9 with D-Cys on its omega-amine; C-terminal amide; ReO (oxorhenium(V)) chelated by the two Cys closes the ring
notes: also called ReO-LCys*-Gly-Phe-Trp-DTrp-Lys-Thr-Phe-GlyN6(DCys*)-NH2
IC50 (human cloned SST-R2): 3 nM

B22: ReO-GF-3 (peptide)
peptide: CXFWWKTFG
modifications: D-Cys at 1; GABA at 2 (written X); D-Trp at 5; GlyN6 building unit at 9 with L-Cys on its omega-amine; C-terminal amide; ReO (oxorhenium(V)) chelated by the two Cys closes the ring
notes: also called ReO-GF-03; ReO-DCys*-GABA-Phe-Trp-DTrp-Lys-Thr-Phe-GlyN6(LCys*)-NH2
IC50 (human cloned SST-R2): 6 nM

B23: ReO-GF-16 (peptide)
peptide: CFWWKTFG
modifications: not fully specified; D-Cys at 1; D-Trp at 4; GlyN6 building unit at 8 with D-Cys on its omega-amine; C-terminal amide; ReO (oxorhenium(V)) chelated by the two Cys closes the ring
IC50 (human cloned SST-R2): 18 nM
